The source of these data is patent US20090041763A1 (UNIVERSITY OF ULSAN FOUNDATION FOR INDUSTRY COOPERATION, published 2009).

The target of this experiment is T1, 4-1BB-GST fusion protein (human 4-1BB fused to glutathione-S-transferase, expressed in E. coli) (human, UniProt Q07011 24-186).
T1 construct: The order of the parts follows the printed name 4-1BB-GST; not shown: glutathione-S-transferase (GST) from the pGEX3 vector (Pharmacia)
The experiment in a line: ELISA, transfectant culture supernatant on 4-1BB-GST antigen; reference is 293 EBNA cultured supernatant. The procedure: The completely humanized sequence to constant region was subcloned to pcDNA, a eukaryote expressing vectors, transfected into 293EBNA cells and serial analyses i.e., ELISA and western blotting analysis were performed using by the cell medium. 4-1BB-GST was used as an antigen for ELISA and each 50 numbers of transfectant medium was used therein.

B1: completely humanized antibody HBBK4-75 (H2L2) (antibody, V domains shown)
VH: QVQLQQSGAEVIKPGASVKLSCKASGYTFSSYWMHWVRQAPGQGLEWIGEINPGNGHTNYNEKFKSRATLTGDTSTSTVYMELSSLRSEDTAVYYCARSFTTARAFAYWGQGTLVTVSS
VL: DIVMTQSPAFLSVTPGEKVTITCRASQTISDYLHWYQQKPDQAPKLLIKYASQSISGIPSRFSGSGSGTDFTFTISSLEAEDAATYYCQDGHSFPPTFGQGTKLEIKT
notes: the VH is the same in both; also called clone 75; HBBK4-75/pcDNA
On to B1, for which the “fold over negative control (ELISA)” value was roughly 15 times.
